Reference: patent US20250250357A1 (NANJING ZAIMING PHARMACEUTICAL, published 2025)

T1: human MSLN-R1-his protein (human, UniProt Q13421 296-390)
T1 construct: Made in HEK293E cells, purified on nickel column; also called hMSLN-R1-his; human MSLN-R1 protein; not shown: His tag
T1 chain: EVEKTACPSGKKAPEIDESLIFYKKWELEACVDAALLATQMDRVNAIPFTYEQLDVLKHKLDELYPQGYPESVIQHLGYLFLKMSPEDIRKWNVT


Experiments:
[1] = target: T2, human MSLN-FL-his protein (human, UniProt Q13421 296-580); experiment: ELISA, coated antigen, antibody 20 nM
T2 construct: Made in HEK293E cells, purified on nickel column; also called hMSLN-FL-his; human MSLN full-length protein; not shown: His tag

[2] = target: T1, human MSLN-R1-his protein; experiment: ELISA, coated antigen, no antibody (blank)
Description: (§1) The plate was sealed with a plastic film and incubated at 4° C. overnight. The next day, the plate was washed twice with PBST, and a blocking buffer [PBS+2% (w/w) BSA] was added for blocking at room temperature for 2 h. The blocking buffer was discarded, and a chimeric antibody or negative control antibody serially diluted from 100 nM was added at 50 μL/well. After incubation at 37° C. for 2 h, the plate was washed 3 times with PBST. […] After incubation at 37° C. for 2 h, the plate was washed 5 times with PBST. A TMB substrate was added at 50 μL/well for incubation at room temperature for 5-10 min, and then a stop solution (1.0 N HCl) was added at 50 μL/well.

[3] = target: T1, human MSLN-R1-his protein; experiment: ELISA, coated antigen, antibody 0.2 nM
Description: as §1

[4] = target: T1, human MSLN-R1-his protein; experiment: ELISA, coated antigen, antibody 200 nM
Description: as §1

[5] = target: T2, human MSLN-FL-his protein; experiment: ELISA, coated antigen, antibody 0.002 nM
Description: as §1

[6] = target: T2, human MSLN-FL-his protein; experiment: ELISA, coated antigen, antibody 0.2 nM
[7] = target: T1, human MSLN-R1-his protein; experiment: ELISA, coated antigen, antibody 2 nM
Description: as §1

[8] = target: T1, human MSLN-R1-his protein; experiment: ELISA, coated antigen, antibody 0.02 nM
Description: as §1

[9] = target: T1, human MSLN-R1-his protein; experiment: ELISA, coated antigen, antibody 0.002 nM
Description: as §1

[10] = target: T2, human MSLN-FL-his protein; experiment: ELISA, coated antigen, antibody 2 nM
Description: as §1

[11] = target: T2, human MSLN-FL-his protein; experiment: ELISA, coated antigen, antibody 0.0002 nM
Description: as §1

[12] = target: T1, human MSLN-R1-his protein; experiment: ELISA, coated antigen, antibody 0.0002 nM
Description: as §1

[13] = target: T2, human MSLN-FL-his protein; experiment: ELISA, coated antigen, antibody 0.02 nM
Description: as §1

[14] = target: T1, human MSLN-R1-his protein; experiment: ELISA, coated antigen, antibody 20 nM
Description: as §1

[15] = target: T2, human MSLN-FL-his protein; experiment: ELISA, coated antigen, no antibody (blank)
Description: as §1

[16] = target: T2, human MSLN-FL-his protein; experiment: ELISA, coated antigen, antibody 200 nM

Binder	OD450 [1]	OD450 [2]	OD450 [3]	OD450 [4]	OD450 [5]	OD450 [6]	OD450 [7]	OD450 [8]	OD450 [9]	OD450 [10]	OD450 [11]	OD450 [12]	OD450 [13]	OD450 [14]	OD450 [15]	OD450 [16]
S009-F7.41.18 chimeric antibody (antibody, human IgG1, kappa, V domains shown, Human-murine chimeric antibody, human IgG1/kappa constant regions) VH: QVQLQQPGTELVKPGASVKLSCKASDYTFTSYWMHWVKQRPGQGLEWIGSINPSNGDTYYNEKFKNKATLTVDKSSSTAYMQLSSLTSDDSAVYYCARGWYFDVWGTGTTVTVSS VL: not shown	2.24	0.06	0.06	0.09	0.25	2.04	0.06	0.05	0.06	2.26	0.08	0.06	1	0.07	0.06	2.3
S009-F7.30.5 chimeric antibody (antibody, human IgG1, kappa, V domains shown, Human-murine chimeric antibody, human IgG1/kappa constant regions) VH: QVQLQQPKTELVKPGASVKLSCKASGYIFTTYWMHWVKQRPGQGLEWIGNVNPSNGGTMYNEKFERRATLTVDKSSSTADMQLSSLTSEDSAVYYCVPHYIGSRPGFAYWGQGTLVTVSG VL: DIVMTQSQKFMSTSVGDRVSVTCKASQNVGTNVAWYQHKPGQSPKALLYSASYRYSGVPDRFTGSGSGTDFTLTITNVQSEDLAEYFCQQYNSYPLTFGGGTKLEIKR	2.43	0.06	0.05	0.32	0.96	2.39	0.06	0.05	0.05	2.41	0.36	0.05	1.77	0.1	0.06	2.36
S009-F7.33.24 chimeric antibody (antibody, human IgG1, kappa, V domains shown, Human-murine chimeric antibody, human IgG1/kappa constant regions) VH: QVQLQQPGTELVKPGASVKLSCKASGYTFTSYWMHWVKQRPGQGLEWIGNVNPSNGGSNYNEKFKNKATLTVDKSSSTADMQLNSLTSEDSAVYYCAPHYIGSRPGFAYWGQGTLVTVSG VL: DIVMTQSQKFMSTSVGDRVSVTCKASQNVGTNIAWYQQKPGQSPKALIYSASYRYSGVPDRFTGSGSGTDFTLTITNVQSEDLAEYFCQQYNSYPLTFGGGTKVEIKR	2.53	0.06	0.05	0.15	1.06	2.6	0.06	0.06	0.06	2.54	0.26	0.06	2.01	0.08	0.06	2.48

Other lines, results leading:

OD450 [1]	OD450 [2]	OD450 [3]	OD450 [4]	OD450 [5]	OD450 [6]	OD450 [7]	OD450 [8]	OD450 [9]	OD450 [10]	OD450 [11]	OD450 [12]	OD450 [13]	OD450 [14]	OD450 [15]	OD450 [16]	Binder
2.21	0.06	0.04	0.07	0.93	2.26	0.04	0.04	0.04	2.24	0.26	0.04	1.82	0.05	0.06	2.36	S009-F7.44.20 chimeric antibody (antibody, human IgG1, kappa, V domains shown, Human-murine chimeric antibody, human IgG1/kappa constant regions) VH: EVQLQQSGPELVKPGASVKIPCKASGYTFTDYNMDWVKQSHGKSLEWIGDINPSTGGTIYNQKFNGKATLTEDKSASTVYMEFRSLTSDDTAVYYCARRRIGTGYFDVWGTGTTVTVSS VL: QIVLTQSPALMSASPGEKVTLTCSASSSVISSYLSWYQQKPGSSPKLLIYRTSNLASGVPARFSGSGSGTSYSLTISSMEAEDAASYFCHQWSSFPYTFGGGTKLEIKR
2.21	0.06	0.04	0.07	0.24	1.87	0.04	0.04	0.04	2.12	0.09	0.04	0.86	0.05	0.06	2.62	S009-F7.48.1 chimeric antibody (antibody, human IgG1, kappa, V domains shown, Human-murine chimeric antibody, human IgG1/kappa constant regions) VH: QVQLQQPGTELVKPGASVKLSCKASGYTFTSYWMHWVKQRPGQGLEWIGNINPSNGGTNNNENFKSKATLTVDTSSSTAYMQLSSLTSEDSAVYYCVRNGYHGYWYFDVWGTGTTVTVSS VL: DIVMTQSQKFMSTSVGDRVSVTCKASQNVGTNVAWYQQQPGQSPKALIYSASYRYSGVPDRFTGSVSGTDFTLTISNVQSEDLAEYFCQQYNSYPLTFGGGTKLEIKR
